Biological target: β1 integrins on HEp-2 cells

For RGDS peptide (Gibco), the ID30 was 170 µM.
